Measured values as given in paper doi:10.1101/2025.10.04.680454.

B1: human IL-7Rα extracellular domain (residues 37-231) with a C-terminal C-tag (domain or fragment)
chain: DYSFSCYSQLEVNGSQHSLTCAFEDPDVNITNLEFEICGALVEVKCLNFRKLQEIYFIETKKFLLIGKSNICVKVGEKSLTCKKIDLTTIVKPEAPFDLSVVYREGANDFVVTFNTSHLQKKYVKVLMHDVAYRQEKDENKWTHVNLSSTKLTLLQRKLQPAAMYEIKVRSIPDHYFKGFWSEWSPSYYFRTPEI
B2: human IL-7Rα fused to a human IgG single-chain Fc tag (Fc fusion)
chain: ESGYAQNGDLEDAELDDYSFSCYSQLEVNGSQHSLTCAFEDPDVNITNLEFEICGALVEVKCLNFRKLQEIYFIETKKFLLIGKSNICVKVGEKSLTCKKIDLTTIVKPEAPFDLSVVYREGANDFVVTFNTSHLQKKYVKVLMHDVAYRQEKDENKWTHVNLSSTKLTLLQRKLQPAAMYEIKVRSIPDHYFKGFWSEWSPSYYFRTPEINNSSGEMD

Experiments:
[1] = target: Mb-1 (parental minibinder), N-terminal polyhistidine tag; test: SPR
[2] = target: Mb-4 (parental minibinder), N-terminal polyhistidine tag; test: SPR
[3] = target: all four evolved minibinders (purified proteins); test: SPR
[4] = target: evolved Mb-1 (affinity matured variant), N-terminal polyhistidine tag; test: SPR
[5] = target: Mb-1 A14V displayed on the yeast cell surface (minibinder-HA-AGA2); test: flow cytometry on cells
[6] = target: Mb-1 P29S displayed on the yeast cell surface (minibinder-HA-AGA2); test: flow cytometry on cells

Binder	Kd [1]	Kd [2]	Kd [3]	Kd [4]	Δ-log10[KD] against parental Mb-1 [5]	Δ-log10[KD] against parental Mb-1 [6]
B1	> 1000 nM	7.8 nM	0.56 to 34 nM	2.1 nM	–	–
B2	–	–	–	–	1.18	0.03
